Reference: paper PMC8528806, “Enzyme promiscuity in natural environments: alkaline phosphatase in the ocean” (The ISME Journal, 2021)

T1: PhoA (APase; MADE1013045) (Alteromonas mediterranea, UniProt F2G8N3)
T1 construct: gene MADE_1013045; full-length 1467-bp synthetic gene, pETM-14, N-terminal His6-PreScission 3C, tag cleaved, expressed in E. coli BL21(DE3)
T1 sequence (F2G8N3 1-488): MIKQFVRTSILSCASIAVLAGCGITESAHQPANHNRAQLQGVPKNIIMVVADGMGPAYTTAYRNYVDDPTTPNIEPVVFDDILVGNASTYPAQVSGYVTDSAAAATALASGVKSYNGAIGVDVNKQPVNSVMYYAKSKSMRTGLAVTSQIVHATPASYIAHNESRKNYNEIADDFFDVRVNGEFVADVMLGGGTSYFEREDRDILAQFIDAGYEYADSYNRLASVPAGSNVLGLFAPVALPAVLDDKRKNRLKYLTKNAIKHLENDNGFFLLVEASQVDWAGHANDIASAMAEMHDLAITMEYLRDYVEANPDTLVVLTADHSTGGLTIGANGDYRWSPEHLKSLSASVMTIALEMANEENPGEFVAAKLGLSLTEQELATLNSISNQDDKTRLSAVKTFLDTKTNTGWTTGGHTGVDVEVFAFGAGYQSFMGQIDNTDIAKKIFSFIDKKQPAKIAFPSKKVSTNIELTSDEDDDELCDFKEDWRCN

B1: PhoA (APase; MADE1013045) (Alteromonas mediterranea DE) (protein)
chain: T1 sequence (F2G8N3 1-488)
notes: full-length 1467-bp synthetic gene, pETM-14, N-terminal His6-PreScission 3C, tag cleaved, expressed in E. coli BL21(DE3)

How the values were obtained:
[1] = biological target: T1, PhoA (APase; MADE1013045); test: p-nitrophenol release, absorbance […] nm, Michaelis-Menten fit; assay type: biochemical; settings: read-out: KM (μmol l^-1); 100 mM Tris pH 8.2, 24 °C, 100 µM MgCl2; 10 nM enzyme
[2] = substrate: O=[N+]([O-])c1ccc(OP(=O)(O)Oc2ccc([N+](=O)[O-])cc2)cc1; test: purified protein; assay type: biochemical, Alteromonas mediterranea; settings: 100 mM Tris pH 8.2, 24 °C, 100 µM MgCl2, 10 nM enzyme
[3] = substrate: O=[N+]([O-])c1ccc(OP(=O)(O)O)cc1; test: purified protein; assay type: biochemical, Alteromonas mediterranea; settings: 100 mM Tris pH 8.2, 24 °C, 100 µM MgCl2, 1 nM enzyme, text rounds KM to 90 µM

Row | Molecule | Km [1] | Km [2] | kcat [2] | kcat/Km [2] | Km [3] | kcat [3] | kcat/Km [3]
1 | COP(=O)(OC)Oc1ccc([N+](=O)[O-])cc1 [Paraoxon-methyl] | 0.015 µM |  |  |  |  |  | 
2 | B1 |  | 0.3 ± 0.1 µM | 0.017 ± 0.001 s⁻¹ | 55000 ± 8000 M⁻¹ s⁻¹ | 94 ± 35 µM | 0.5 ± 0.03 s⁻¹ | 4800 ± 800 M⁻¹ s⁻¹
